± gives the uncertainty stated by the source.
Assay: self-splicing fitness, log relative to wild type (ln ratio); higher = more splicing; Tetrahymena group I intron in knt gene, E. coli kanamycin selection, DiMSum; sequences stand for … in CUCUCU…GGAGGGAAAAGUUAUCAGGCAUGCACCUGGUAGCUAGUCUUUAAACCAAUAGAUUGCAUCGGUUUAAAAGGCAAGACCGUCAAAUUGCGGGAAAGGGGUCAACAGCCGUUCAGUACCAAGUCUCAGGGGAAACUUUGAGAUGGCCUUGCAAAGGGUAUGGUAAUAAGCUGACGGACAUGGUCCUAACCACGCAGCCAAGUCCUAAGUCAACAGAUCUUCUGUUGAUAUGGAUGCAGUUCACAGACUAAAUGUCGGUCGGGGAAGAUGUAUUCUUCUCAUAAGAUAUAGUCGGACCUCUCCUUAAUGGGAGCUAGCGGAUGAAGUGAUGCAACACUGGAGCCGCUGGGAACUAAUUUGUAUGCGAAAGUAUAUUGAUUAGUUUUGGAGUACUCGUGGUCG
Procedure, shortened: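 Pooled colonies went to amplicon sequencing on an Illumina HiSeq 2500 after six replicate transformations. The plates were LB agar with 100 μg/mL carbenicillin, 50 μM IPTG and 0.2% rhamnose, with or without 25 μg/mL kanamycin, incubated overnight at 37°C or 30°C. The E. coli BL21(DE3) library had all eight P1ex-region intron nucleotides randomised, the intron placed in the knt kanamycin-resistance gene on pET-22b(+). DiMSum fitness is the error-weighted combination of replicate fold changes, kanamycin against none, normalised to wild type.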

| Sequence | self-splicing fitness (ln) (30 °C) | self-splicing fitness (ln) (37 °C) |
| --- | --- | --- |
| UCAAAGCAAUAUUACGUCCC | -0.356 ± 0.2 | -1.14 ± 0.47 |
| UCAAAGCAAUAUUACGUGGA | -1.49 ± 0.1 | -1.6 ± 0.11 |
| UCAAAGCAAUAUUACGUGUC | -3.25 ± 0.22 | -1.69 ± 0.19 |
| UCAAAGCAAUAUUACGUUCA | -0.821 ± 0.099 | -0.534 ± 0.11 |
| UCAAAGCAAUAUUACGUUGA | -3.43 ± 0.14 | -2.66 ± 0.18 |
| UCACAGCAAUAUUACGAAAU | -3.43 ± 0.37 | -0.587 ± 0.16 |
| UCACAGCAAUAUUACGACAU | -3.584 ± 0.02 | -2.19 ± 0.034 |
| UCACAGCAAUAUUACGACUG | -2.18 ± 0.098 | -0.964 ± 0.12 |
| UCACAGCAAUAUUACGAUAC | -3.87 ± 0.26 | -2.75 ± 0.35 |
| UCACAGCAAUAUUACGAUCG | -0.61 ± 0.08 | -0.076 ± 0.11 |
| UCACAGCAAUAUUACGCACG | -1.22 ± 0.091 | -0.319 ± 0.14 |
| UCACAGCAAUAUUACGCAUC | -4.21 ± 0.36 | -3.04 ± 0.4 |
| UCACAGCAAUAUUACGCCAU | -3.28 ± 0.19 | -2.22 ± 0.18 |
| UCACAGCAAUAUUACGCCCU | -3.66 ± 0.35 | -0.688 ± 0.2 |
| UCACAGCAAUAUUACGCCGA | -0.333 ± 0.1 | 0.184 ± 0.14 |
| UCACAGCAAUAUUACGCCGG | -0.748 ± 0.13 | 0.108 ± 0.13 |
| UCACAGCAAUAUUACGCCUU | -3.82 ± 0.37 | -2.71 ± 0.41 |
| UCACAGCAAUAUUACGCUCG | -1.15 ± 0.086 | 0.16 ± 0.1 |
| UCACAGCAAUAUUACGCUGA | -2.76 ± 0.18 | -1.54 ± 0.14 |
| UCACAGCAAUAUUACGGACA | -1.22 ± 0.099 | -0.687 ± 0.099 |
| UCACAGCAAUAUUACGGAGA | -1.48 ± 0.1 | -0.898 ± 0.11 |
| UCACAGCAAUAUUACGGCUC | -2.9 ± 0.22 | -1.87 ± 0.21 |
| UCACAGCAAUAUUACGGGAA | -1.98 ± 0.1 | -0.945 ± 0.089 |
| UCACAGCAAUAUUACGGGGU | -3.58 ± 0.14 | -2.67 ± 0.18 |
| UCACAGCAAUAUUACGGUCG | -0.0254 ± 0.054 | 0.119 ± 0.061 |

| Sequence | self-splicing fitness (ln) (30 °C) | self-splicing fitness (ln) (37 °C) |
| --- | --- | --- |
| UCACAGCAAUAUUACGUACG | -0.786 ± 0.093 | -0.747 ± 0.1 |
| UCACAGCAAUAUUACGUCCA | -0.951 ± 0.14 | -0.533 ± 0.14 |
| UCACAGCAAUAUUACGUCGG | -1.43 ± 0.077 | -0.796 ± 0.083 |
| UCACAGCAAUAUUACGUCUC | -3.42 ± 0.25 | -1.77 ± 0.2 |
| UCACAGCAAUAUUACGUGAC | -3.26 ± 0.12 | -2.5 ± 0.22 |
| UCACAGCAAUAUUACGUUGA | -2.56 ± 0.11 | -2.1 ± 0.11 |
| UCAGAGCAAUAUUACGAAGG | -2.15 ± 0.085 | -1.84 ± 0.12 |
| UCAGAGCAAUAUUACGAAUU | – | -2.24 ± 0.37 |
| UCAGAGCAAUAUUACGACCA | -2.73 ± 0.38 | -2.63 ± 0.47 |
| UCAGAGCAAUAUUACGACGA | -0.0796 ± 0.1 | -0.26 ± 0.11 |
| UCAGAGCAAUAUUACGACGC | – | -1.69 ± 0.4 |
| UCAGAGCAAUAUUACGACGU | -1.87 ± 0.2 | 0.0812 ± 0.17 |
| UCAGAGCAAUAUUACGAUUA | -1.18 ± 0.28 | – |
| UCAGAGCAAUAUUACGAUUU | -3.82 ± 0.3 | -1.67 ± 0.22 |
| UCAGAGCAAUAUUACGCCGG | -2.92 ± 0.24 | – |
| UCAGAGCAAUAUUACGCGUU | -4.72 ± 0.29 | -2.78 ± 0.21 |
| UCAGAGCAAUAUUACGGAGA | -2.08 ± 0.15 | -1.93 ± 0.17 |
| UCAGAGCAAUAUUACGGCAA | -2.43 ± 0.33 | – |
| UCAGAGCAAUAUUACGGGAC | -3.74 ± 0.29 | -1.6 ± 0.33 |
| UCAGAGCAAUAUUACGGUAU | -2.79 ± 0.2 | -3.2 ± 0.44 |
| UCAGAGCAAUAUUACGGUGG | -3.06 ± 0.089 | -1.32 ± 0.084 |
| UCAGAGCAAUAUUACGUAAU | -2.52 ± 0.25 | -1.66 ± 0.3 |
| UCAGAGCAAUAUUACGUAUU | -3.31 ± 0.2 | -3.08 ± 0.29 |
| UCAGAGCAAUAUUACGUCGU | -2.89 ± 0.24 | -0.54 ± 0.24 |
| UCAGAGCAAUAUUACGUGGA | -2.49 ± 0.17 | -0.107 ± 0.12 |

| Sequence | self-splicing fitness (ln) (30 °C) | self-splicing fitness (ln) (37 °C) |
| --- | --- | --- |
| UCAGAGCAAUAUUACGUUCC | -3.84 ± 0.47 | -2.57 ± 0.49 |
| UCAUAGCAAUAUUACGAAGG | -2.69 ± 0.14 | -1.31 ± 0.11 |
| UCAUAGCAAUAUUACGAAUA | -2.82 ± 0.28 | -1.04 ± 0.28 |
| UCAUAGCAAUAUUACGAAUG | -2.7 ± 0.16 | -1.83 ± 0.16 |
| UCAUAGCAAUAUUACGAAUU | -3.73 ± 0.32 | -2.48 ± 0.24 |
| UCAUAGCAAUAUUACGACAA | -2.43 ± 0.26 | -1.06 ± 0.15 |
| UCAUAGCAAUAUUACGACAC | – | -2.64 ± 0.29 |
| UCAUAGCAAUAUUACGAGCC | – | -1.76 ± 0.49 |
| UCAUAGCAAUAUUACGAUGG | -3.32 ± 0.19 | -1.3 ± 0.17 |
| UCAUAGCAAUAUUACGAUUC | -2.39 ± 0.18 | -2.6 ± 0.33 |
| UCAUAGCAAUAUUACGAUUG | -2.31 ± 0.13 | -1.38 ± 0.13 |
| UCAUAGCAAUAUUACGCAAG | -1.94 ± 0.15 | -2.04 ± 0.2 |
| UCAUAGCAAUAUUACGCCGU | -3.49 ± 0.34 | -1.85 ± 0.39 |
| UCAUAGCAAUAUUACGCGUC | -3.76 ± 0.31 | – |
| UCAUAGCAAUAUUACGGGCG | -1.12 ± 0.096 | -0.909 ± 0.12 |
| UCAUAGCAAUAUUACGGUCC | -3.53 ± 0.37 | -1.81 ± 0.35 |
| UCAUAGCAAUAUUACGGUUG | -3.07 ± 0.19 | -1.94 ± 0.17 |
| UCAUAGCAAUAUUACGUAGU | -3.07 ± 0.21 | -2.17 ± 0.28 |
| UCAUAGCAAUAUUACGUCAA | -2.44 ± 0.32 | – |
| UCAUAGCAAUAUUACGUUAA | – | -3.44 ± 0.42 |
| UCAUAGCAAUAUUACGUUAG | -2.9 ± 0.25 | -1.66 ± 0.19 |
| UCCAAGCAAUAUUACGAACA | -1.87 ± 0.14 | -0.969 ± 0.13 |
| UCCAAGCAAUAUUACGAGAC | – | -2.23 ± 0.29 |
| UCCAAGCAAUAUUACGAGGC | -3.67 ± 0.23 | -2.26 ± 0.22 |
| UCCAAGCAAUAUUACGAUAG | -2.81 ± 0.13 | -2.98 ± 0.21 |

| Sequence | self-splicing fitness (ln) (30 °C) | self-splicing fitness (ln) (37 °C) |
| --- | --- | --- |
| UCCAAGCAAUAUUACGCGCG | -2.95 ± 0.17 | -1.49 ± 0.23 |
| UCCAAGCAAUAUUACGCGGC | -2.74 ± 0.23 | -2.94 ± 0.23 |
| UCCAAGCAAUAUUACGGCAC | -4.06 ± 0.29 | -0.668 ± 0.11 |
| UCCAAGCAAUAUUACGGCAU | -3.77 ± 0.21 | -1.48 ± 0.12 |
| UCCAAGCAAUAUUACGGCCC | – | -1.45 ± 0.32 |
| UCCAAGCAAUAUUACGGGGA | -2.58 ± 0.15 | -1.27 ± 0.1 |
| UCCAAGCAAUAUUACGGUCU | -2.33 ± 0.1 | -0.343 ± 0.097 |
| UCCAAGCAAUAUUACGGUUC | -3.22 ± 0.22 | -2.56 ± 0.18 |
| UCCAAGCAAUAUUACGUAGG | -0.867 ± 0.06 | -0.159 ± 0.094 |
| UCCAAGCAAUAUUACGUCCG | -2.76 ± 0.21 | -1.81 ± 0.19 |
| UCCAAGCAAUAUUACGUGGA | -2.9 ± 0.17 | -3.47 ± 0.29 |
| UCCAAGCAAUAUUACGUUAU | -2.78 ± 0.18 | -3.5 ± 0.37 |
| UCCCAGCAAUAUUACGAACC | -1.58 ± 0.2 | -2.08 ± 0.46 |
| UCCCAGCAAUAUUACGACAU | -3.293 ± 0.018 | -2.13 ± 0.035 |
| UCCCAGCAAUAUUACGACUA | -2.12 ± 0.15 | -1.15 ± 0.15 |
| UCCCAGCAAUAUUACGACUG | -3.58 ± 0.2 | -3.16 ± 0.32 |
| UCCCAGCAAUAUUACGAGUC | -3.66 ± 0.18 | -1.56 ± 0.17 |
| UCCCAGCAAUAUUACGAUAG | -3.91 ± 0.26 | -1.97 ± 0.23 |
| UCCCAGCAAUAUUACGAUUG | -3.56 ± 0.32 | -3.17 ± 0.4 |
| UCCCAGCAAUAUUACGCAGG | -3.88 ± 0.29 | -3.54 ± 0.26 |
| UCCCAGCAAUAUUACGCAUU | -2.93 ± 0.076 | -1.58 ± 0.082 |
| UCCCAGCAAUAUUACGCCUC | -3.11 ± 0.23 | -1.98 ± 0.29 |
| UCCCAGCAAUAUUACGCGGC | – | -0.462 ± 0.4 |
| UCCCAGCAAUAUUACGGAGU | -0.413 ± 0.053 | -0.504 ± 0.066 |

— the supplement of paper PMC7877785
